Reference: patent US20260250410A1 (SICHUAN HUIYU PHARMACEUTICAL, published 2026)

T1: huCDCP1-his (human, UniProt Q9H5V8 30-667, limits assumed)
T1 construct: also called human CDCP1 antigen; not shown: his tag
T1 sequence (looked up): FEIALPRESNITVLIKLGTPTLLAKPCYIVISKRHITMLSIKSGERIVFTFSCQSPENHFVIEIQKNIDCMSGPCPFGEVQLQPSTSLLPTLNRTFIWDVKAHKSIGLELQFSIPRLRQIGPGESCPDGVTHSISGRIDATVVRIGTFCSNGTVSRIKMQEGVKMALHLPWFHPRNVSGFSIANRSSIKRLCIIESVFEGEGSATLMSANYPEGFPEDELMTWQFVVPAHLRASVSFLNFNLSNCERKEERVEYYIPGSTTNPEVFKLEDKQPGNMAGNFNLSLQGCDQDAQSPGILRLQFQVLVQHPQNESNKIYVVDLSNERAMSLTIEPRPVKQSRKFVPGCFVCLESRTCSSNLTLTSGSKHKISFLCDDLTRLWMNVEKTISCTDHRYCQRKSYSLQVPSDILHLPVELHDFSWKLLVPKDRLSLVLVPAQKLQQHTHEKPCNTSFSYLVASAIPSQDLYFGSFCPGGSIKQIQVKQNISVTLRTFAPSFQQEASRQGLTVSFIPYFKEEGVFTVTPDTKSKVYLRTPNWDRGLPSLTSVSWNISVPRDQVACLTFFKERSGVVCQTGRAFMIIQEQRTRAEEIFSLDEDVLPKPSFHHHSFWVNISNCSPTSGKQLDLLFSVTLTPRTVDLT

T2: HuCDCP1-C (human, UniProt Q9H5V8 30-667)
T2 construct: range 30-667; expressed in HEK-293T, purified by Fc/his tag; also called human CDCP1-C; full-length extracellular domain of human CDCP1; not shown: Fc or his tag
T2 sequence (looked up): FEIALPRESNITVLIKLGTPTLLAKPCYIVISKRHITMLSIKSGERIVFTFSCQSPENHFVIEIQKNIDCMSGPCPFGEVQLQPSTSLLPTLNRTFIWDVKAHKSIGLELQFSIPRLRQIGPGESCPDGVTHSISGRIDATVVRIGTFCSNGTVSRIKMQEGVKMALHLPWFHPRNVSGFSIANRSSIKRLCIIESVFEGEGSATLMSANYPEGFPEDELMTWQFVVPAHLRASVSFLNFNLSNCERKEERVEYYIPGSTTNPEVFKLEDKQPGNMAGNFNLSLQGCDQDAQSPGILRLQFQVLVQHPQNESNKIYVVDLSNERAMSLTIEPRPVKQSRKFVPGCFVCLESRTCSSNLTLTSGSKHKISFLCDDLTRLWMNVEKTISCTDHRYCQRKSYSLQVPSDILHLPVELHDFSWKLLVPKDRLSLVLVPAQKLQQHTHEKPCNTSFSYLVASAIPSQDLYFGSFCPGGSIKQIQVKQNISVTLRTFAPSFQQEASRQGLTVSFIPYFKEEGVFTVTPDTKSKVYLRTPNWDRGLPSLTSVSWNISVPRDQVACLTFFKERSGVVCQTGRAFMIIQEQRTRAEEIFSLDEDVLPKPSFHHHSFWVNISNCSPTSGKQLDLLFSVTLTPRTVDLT

T3: human CDCP1 on tumor cells (human, UniProt Q9H5V8 30-836)
T3 sequence (looked up): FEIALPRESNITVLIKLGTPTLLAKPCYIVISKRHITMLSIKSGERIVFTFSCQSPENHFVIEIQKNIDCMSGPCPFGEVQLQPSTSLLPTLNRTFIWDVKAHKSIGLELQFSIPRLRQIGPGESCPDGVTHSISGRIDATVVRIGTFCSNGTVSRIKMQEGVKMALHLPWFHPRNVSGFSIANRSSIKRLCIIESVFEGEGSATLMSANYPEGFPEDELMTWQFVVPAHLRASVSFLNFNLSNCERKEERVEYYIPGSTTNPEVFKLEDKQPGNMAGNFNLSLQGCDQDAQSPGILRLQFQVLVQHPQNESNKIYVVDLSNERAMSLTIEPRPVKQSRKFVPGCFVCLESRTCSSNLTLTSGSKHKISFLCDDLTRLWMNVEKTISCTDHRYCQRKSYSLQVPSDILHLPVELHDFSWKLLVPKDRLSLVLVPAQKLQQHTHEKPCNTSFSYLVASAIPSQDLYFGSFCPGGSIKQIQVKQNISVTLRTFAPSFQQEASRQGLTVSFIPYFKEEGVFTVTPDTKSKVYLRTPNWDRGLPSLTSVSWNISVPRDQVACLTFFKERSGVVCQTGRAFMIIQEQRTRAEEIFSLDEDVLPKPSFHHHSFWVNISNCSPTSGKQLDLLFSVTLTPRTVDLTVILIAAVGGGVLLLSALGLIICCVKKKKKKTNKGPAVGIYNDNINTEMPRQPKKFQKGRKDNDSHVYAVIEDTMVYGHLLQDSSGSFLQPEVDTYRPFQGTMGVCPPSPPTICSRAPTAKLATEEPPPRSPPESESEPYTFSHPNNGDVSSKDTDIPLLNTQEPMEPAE


Experiments:
huCDCP1-his = molecular target: T1, huCDCP1-his; assay: SPR (Caterra), antigen immobilized
Protocol: (§1) The candidate antibodies obtained from Example 6 were subjected to gene cloning, constructed into an expression vector for a small amount of expression in CHO cells, and purified with an Fc affinity column (AT Protein A Diamond Plus. No. AA402312). Antibody purity was analyzed by HPLC and determined by Nanodrop. High-throughput affinity assay was carried out for a small amount of antibodies by Caterra. […] At the same time, 2 μg/ml antigen human CDCP1-C and 2 μg/ml human CDCP1-B were used for coating, and the antigen-antibody binding capacity was tested by ELISA for verification.

HuCDCP1-C = molecular target: T2, HuCDCP1-C; assay: ELISA, coated antigen
Protocol: as §1

[1] = molecular target: T3, human CDCP1 on tumor cells; assay: cell-based or functional assay

Row | Binder | Kd (huCDCP1-his) [nM] | EC50 (HuCDCP1-C) [nM] | IC50 (nM), killing of HCT116 cells (120 h), CellTiter-Glo [1] [nM] | IC50 (nM), killing of MDA-MB-231 cells (120 h), CellTiter-Glo [1] [nM] | IC50 (nM), killing of PC3 cells (96 h), CellTiter-Glo [1] [nM]
1 | SB7 (antibody, V domains shown, single B cell antibody, expressed in CHO) VH: QVQLQQSGPELVSPGESVKISCKGSGYTFTDYAVHWVKQSHSKSLEWIGVKSVYYGITKYSQNFKDKATMTVDKSSSTAYMELARLTSEDSAIYYCARDSYGSSRGYFDYWGQGTTLTVSS VL: DIKMTQSPSSIYVSPGERVTITCKASQDINSFLSWFQQKPGKSPKTLIYRANRLVDGVPSRFSGSGSGQDYSLTISSLEYEDMGIYYCLQYDEFPRTFGGGTKLEIK | 1.74 | 0.034 |  |  | 
2 | SB1 (antibody, V domains shown, single B cell antibody, expressed in CHO) VH: QVQLQQSGPDLVRPGESVKISCKGSGYTFTDHAIHWVRQSHAKSLEWIGVISFSYDNTKYNQNFKGKATMTVDKSSNTAYMELARLTSEDSAIYYCARDCYGSNRGYFDYWGQGTTLTVSS VL: DIRMTQSPSSMYASLGERVTITCKASQDINRFLSWFLQRPGKAPKTLIYRANNLVEGVPSRFSGSGSGQDYSLIISNLEYEDMGIYYCLQYDEFPRTFGGGTKLEIK | 1.61 | 0.092 |  |  | 
3 | 5B8-MMAE (antibody, V domains shown, vc-MMAE coupled after reduction, sites not stated; DAR 3.85) VH: EVQLKESGGGLVQPGGSLRISCATSGLTFTHYHMSWVRQPPGKAPEWLAIIRNKAYGYTTDYSASVRGRFTISRDDSQSILYLQMNTLRAEDSATYYCVREGGYGYDGTFAYWGQGTTVTVSS VL: not shown |  |  | 11.7 | > 200 | 0.014
4 | 8C9-MMAE (antibody, V domains shown, vc-MMAE coupled after reduction, sites not stated; DAR 3.44) VH: EVQLKESGGGLVQPGGSLRISCATSGLTFTHYHMSWVRQPPGKAPEWLAIIRNKAYGYTTDYSASVRGRFTISRDDSQSILYLQMNTLRPEDSATYYCVREGGYGYDGTFAYWGQGTTVTVSS VL: not shown |  |  | 13 | > 40 | 0.0184
5 | G10F6-MMAE (antibody, V domains shown, vc-MMAE coupled after reduction, sites not stated; DAR 3.6) VH: EVKLVESGPGILQPSQTLSLTCSFSGFSLSTSGMGVSWVRQPSGKGLEWLAHIYWDDDKRYNPSLKGRLTISKDTPRNQVFLEITSVDTTDTATYYCARVPGNWDEDAMDYWGQGTTVTVSS VL: DIQMTQSPLSLPVSLGDQASISCRSSQNIVHTNGNTYLEWYLQKVGQSPKLLIYKVSNRFSGVPDRFSGSGSGTDFTLKISRVEAEDLGVYYCFQGSHVPYTFGGGTKLEIK |  |  | 1.29 | > 40 | 0.0106
6 | SB2 (antibody, V domains shown, single B cell antibody, expressed in CHO) VH: DVKLVESGGGLVKPGGSLKLSCAASGFTFSSYTMSWVRQTPEKRLEWVATISSGGIYTYYPDSVKGRFTISRDNAKDTLYLQMNSLRSEDTAVYYCSSPHSYAISYGYFDYWGQGTTLTVSS VL: not shown | 1.44 | 0.045 |  |  | 
7 | SB3 (antibody, V domains shown, single B cell antibody, expressed in CHO) VH: DVKLVESGGGLVEPGGSLKLSCAASGFPFSSYTMSWVRQTPEKRLEWVATISSGGIYTYYPDSVKGRFTISRDNAKDTLYLQMSSLRSEDTAVYYCSSPHSYAISYGYFDYWGQGTTLTVSS VL: not shown | 0.201 | 0.049 |  |  | 
8 | 3C11-MMAE (antibody, V domains shown, vc-MMAE coupled after reduction, sites not stated; DAR 3.48) VH: EVQLQQSGTVLARPGASVKMSCKASGYNFISYWLHWIKQRPGQGLEWIGGIYPGNTDTTYNQKFKGKAKVTAVTSATTAYMELSSLTNEDSAVYYCIRYDYDRGMDYWGQGTTVTVSS VL: DIQMTQSPSSFSVSLGDRVTITCRASEDIYYRLAWYQQKPGNAPRLLISGATALETGVPSRFSGSGSGKDYTLSITSLQTEDVATYYCQHYWNIPWTFGGGTKLEIK |  |  | 2.33 | > 40 | 0.0119
9 | 3B12H5-MMAE (antibody, V domains shown, vc-MMAE coupled after reduction, sites not stated; DAR 3.2) VH: EVQLQQSGTVLARPGASVKMSCKASGYSFTIYWVHWVKQRPGQGLEWIGAVYPGNDDTSYNQNFKGKAKLTAVTSATTAYMELSSLTIDDSAVYYCTRHTYDEVFDYWGQGTTVTVSS VL: DIVMTQSPSSLSVSLGDRVTITCKASEDIYYRLAWYQQKPGNAPRLLISGGTNLEAGIPSRFSGSGSGKDYTLSITSLQTEDVAIYYCQHYWNTPWTFGGGTKLEIK |  |  | 6.87 | > 40 | 0.0225
10 | SB4 (antibody, V domains shown, single B cell antibody, expressed in CHO) VH: QVQLQQSGAELVRPGTSVKISCKASGYTFTNYWLGWVKQRPGHGLEWIGDNYPGDNYRNFNEKFKGKATLTTDASSSTAYLQLSSLISEDSAVYFCTRSGGSRYYTMDYWGQGTSVTVSS VL: DIVMTQAAFSNPVTLGTSASISCRSSRSLLHNNGITYLYWYLQKPGQSPQLLIYQMSNLASGVPDRFHSSGSGTDFTLSISRVEAEDVGVYYCAQNLDLPYTFGGGTKLEIK | 7.66 | 0.071 |  |  | 
11 | SB6 (antibody, V domains shown, single B cell antibody, expressed in CHO) VH: QGQMQQSGAELVKPGASVKLSCKTSGFTFNSSYITWLKQKPGQSLEWIAWIFAGTGGTYYNEKFTDKAQLTVDTTSSTAYMQFSSLTTEDSAIYYCARHGLGYDYWGQGTTLTVSS VL: SIVMTQTPKFLLVSAGDRVTITCKASQSVNTDVAWYQQKSGQSPKLLIYSASNRYTGVPDRFTGSGYGTDFTFTISTVQAEDLAVYFCQQDHSSPPWTFGGGTKLEIK | 0.722 | 0.027 |  |  | 
12 | 10D2-MMAE (antibody, V domains shown, vc-MMAE coupled after reduction, sites not stated; DAR 3.5) VH: EVQLQQSGPELKKPGETVKISCKASGYTFTDYSMHWVKQAPGKGLKWMGWINTETGQPTYADDFKGRFAFSLETSASSAYLQINNLKNEDTATYFCTRTFYYDYVGDYWGQGTTVTVSS VL: DIVMTQSHKFMSTSVGDRVSITCKASQDVSTAVAWYRQKPGQSPKLLIYWASTRHTGVPDRLTGSGSGTDFALTINSVQAEDLALYYCQQHSSTPYTFGGGTKLEIK |  |  | 11.4 | > 200 | 0.0164
13 | 6A7-MMAE (antibody, V domains shown, vc-MMAE coupled after reduction, sites not stated; DAR 3.6) VH: EVQLKESGAELVRPGASVKVSCKASGYSFTSYWMNWVKQRPGQGLEWIGMIHPSDSETKLNQKFRDRASLTVDKSSSTAYMQLSSPTSEDSAVYYCTINYESFYYAMDYWGQGTTVTVSS VL: DIVMTQSPASLAVSLGQRATISCRASKSVSTSGYSYMHWYQQKPGQPPKLLLYLASNLESGVPARFSGSGSGADFTLNIHPVEEEDAATYYCLHSRELPYTFGGGTKLEIK |  |  | 5.84 | > 40 | 0.0527
14 | 8E5-MMAE (antibody, V domains shown, vc-MMAE coupled after reduction, sites not stated; DAR 3.65) VH: EVQLKESGPELKKPGETVKISCKASGYTLTDFSMHWLKQAPGKGLKWMGWINTETGAPTYADDFKGRFALSLDTSANTAYLQINNLKNEDTATYFCSRGRDYDPHFDYWGQGTTVTVSS VL: EIVLTQSPATLSVTPGDRVSLSCRASQSISDFLHWYQQRSHESPRLLIKYASQSISGIPSRFGGSGSGSDFTLNINTVEPEDVGMYYCQSAHSFPYTFGGGTKLEIK |  |  | 10.6 | > 40 | 0.0205
